Test results reported in patent EP2778173A1 (dated 2014).

Biological target: T1, recombinant EF produced in our laboratory (Bacillus anthracis, UniProt P40136 34-800)
T1 sequence: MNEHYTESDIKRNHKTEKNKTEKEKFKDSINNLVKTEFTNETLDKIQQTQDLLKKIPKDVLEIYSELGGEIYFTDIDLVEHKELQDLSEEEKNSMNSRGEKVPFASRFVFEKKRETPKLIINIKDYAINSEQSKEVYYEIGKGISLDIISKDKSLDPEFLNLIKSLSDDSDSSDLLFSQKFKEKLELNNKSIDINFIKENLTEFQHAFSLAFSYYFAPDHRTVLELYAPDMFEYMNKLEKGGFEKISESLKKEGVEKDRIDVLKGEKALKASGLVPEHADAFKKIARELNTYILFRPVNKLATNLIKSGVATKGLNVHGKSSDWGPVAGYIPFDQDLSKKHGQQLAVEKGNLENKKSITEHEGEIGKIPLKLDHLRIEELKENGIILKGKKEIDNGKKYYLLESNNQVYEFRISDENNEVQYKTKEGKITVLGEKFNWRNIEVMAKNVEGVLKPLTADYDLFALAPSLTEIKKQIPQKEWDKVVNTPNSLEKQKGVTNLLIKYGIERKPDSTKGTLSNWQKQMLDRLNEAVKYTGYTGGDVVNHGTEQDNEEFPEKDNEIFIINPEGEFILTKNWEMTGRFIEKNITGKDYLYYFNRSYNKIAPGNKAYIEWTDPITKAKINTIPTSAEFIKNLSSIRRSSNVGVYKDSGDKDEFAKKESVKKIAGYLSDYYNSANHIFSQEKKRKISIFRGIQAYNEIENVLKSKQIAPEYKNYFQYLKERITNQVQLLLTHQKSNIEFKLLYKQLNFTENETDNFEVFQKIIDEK
Assay: SPR (Biacore X), scFv 2LF on CM5 chip, Native EF in solution; Table 2

B1: scFv 2LF (scFv, V domains shown)
VH: QVQLVESGGGVVQPGRSLRLSCAASGFAFDSTAMHWVRQAPGKGLEWVAVISTGGSTYYADSVKGRFTISRDNSNNTLYLQMNSLRAEDTAVYYCAKAVRGYIGSRGPLDVWGQGTMVTVSS
VL: DIQMTQSPSSVSASVGDRVTITCRASQGISSWLAWYQQKPGKAPKLLIYKASSLQSGVPSRFSGSGSGTDFTLTISSLQPEDFATYYCQQYSTSPITFGGGTKVEIK
In the case of B1, the koff is reported as 0.00051 s⁻¹.
